Laboratory results published in patent US20200040082A1 (Seagen, published 2020).

What was measured:
[1] = molecular target: T1, discontinuous epitope mimic CILQ2HLSSTTAQVTQCI2NADLGWHISPSFKC (Cys-acetamidomethyl (Cys-acm, printed as '2') at positions 5 and 19; Cys at positions 1, 17 and 33 used for the T3 CLIPS scaffold (as for Set 8)); assay: Pepscan-based peptide array ELISA, discontinuous epitope mimics
T1 peptide: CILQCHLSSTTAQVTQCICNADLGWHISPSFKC
Protocol: (§1) The binding of antibody to each of the synthesized peptides was tested in a pepscan-based ELISA. The peptide arrays were incubated with primary antibody solution (overnight at 4° C.). After washing, the peptide arrays were incubated with a 1/1000 dilution of a goat anti-human HRP conjugate (Southern Biotech) for one hour at 25° C. […] After one hour, the color development was measured. The color development was quantified with a charge coupled device (CCD)—camera and an image processing system.

[2] = molecular target: T2, discontinuous epitope mimic CKDRVAPGPGLGLTLQCI2NADLGWHISPSFKC (Cys-acetamidomethyl (Cys-acm, printed as '2') at position 19; Cys at positions 1, 17 and 33 used for the T3 CLIPS scaffold (as for Set 8)); assay: as above
T2 peptide: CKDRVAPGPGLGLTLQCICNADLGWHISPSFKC
Protocol: as §1

[3] = molecular target: T3, human TIGIT (T-cell immunoreceptor with Ig and ITIM domains) (human, UniProt Q495A1 22-244); assay: competition flow cytometry against 1 ug/mL hCD155-Fc-AlexaFluor647 on 293-hTIGIT cells
T3 construct: also called hTIGIT
T3 sequence: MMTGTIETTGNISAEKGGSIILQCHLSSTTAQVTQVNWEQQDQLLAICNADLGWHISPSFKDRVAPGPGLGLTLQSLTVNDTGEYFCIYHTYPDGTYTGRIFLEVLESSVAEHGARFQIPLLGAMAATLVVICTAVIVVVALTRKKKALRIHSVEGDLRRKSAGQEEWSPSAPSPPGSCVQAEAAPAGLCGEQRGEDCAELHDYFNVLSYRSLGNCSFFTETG
Protocol: Samples were analyzed on a CytoFLEX flow cytometer. Median fluorescence intensity of the FSC/SSC gated population was determined for each antibody concentration. Percent blockade was calculated relative to the MFI of the no antibody control. NonLinear regression of Log(X) transformed data was performed in GraphPad Prism 6.

[4] = molecular target: T3, human TIGIT (T-cell immunoreceptor with …); assay: competition flow cytometry against hCD112-Fc-AlexaFluor647 on 293-hTIGIT cells
cynomolgus monkey TIGIT = molecular target: T4, cynomolgus monkey TIGIT (cynomolgus monkey); assay: flow cytometry, MFI on cyno TIGIT HEK 293 cells over parental HEK 293 cells
T4 construct: On HEK 293 cells (lentiviral transduction) and on cynomolgus peripheral blood T cells; also called cyno TIGIT
Protocol: (§2) HEK 293 cells were engineered to stably express high levels of human, mouse or cynomolgus monkey TIGIT by lentiviral transduction. […] Cells were then washed twice with wash buffer and incubated with anti-human IgG conjugated to PE for 15 minutes on ice. Cells were then washed twice with wash buffer and analyzed by flow cytometry on a FACS Canto II instrument (BD Biosciences). Fold over background (FOB) was calculated as the median fluorescence intensity (MFI) of the anti-TIGIT clone bound to target-positive cells divided by the MFI of the anti-TIGIT clone bound to target-negative cells.

[5] = molecular target: T3, human TIGIT (T-cell immunoreceptor with …); assay: flow cytometry, MFI on human TIGIT HEK 293 cells over parental HEK 293 cells
Protocol: as §2

[6] = molecular target: T3, human TIGIT (T-cell immunoreceptor with …); assay: flow cytometry titration on HEK 293 cells expressing human TIGIT

T4 sequence (chain, as listed by the source limits assumed): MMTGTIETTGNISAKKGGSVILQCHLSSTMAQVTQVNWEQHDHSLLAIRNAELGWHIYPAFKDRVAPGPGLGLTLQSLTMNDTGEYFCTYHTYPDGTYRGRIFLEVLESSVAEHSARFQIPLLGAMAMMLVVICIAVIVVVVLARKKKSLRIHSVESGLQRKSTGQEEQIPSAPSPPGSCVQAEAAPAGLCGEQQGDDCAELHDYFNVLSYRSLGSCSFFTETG

B1: Clone 25 (antibody, V domains shown)
VH: QVQLVQSGAEVKKPGASVKVSCKASGYTFTSYAISWVRQAPGQGLEWMGWISAYNGNTNYAQKLQGRVTMTTDTSTSTAYMELRSLRSDDTAVYYCARDLSSFWSGDVLGAFDIWGQGTMVTVSS
VL: DIQMTQSPSSLSASVGDRVTITCRASQSISSYLNWYQQKPGKAPKLLIYAASSLQSGVPSRFSGSGSGTDFTLTISSLQPEDFATYYCQQSVPPRTFGGGTKVEIK
notes: Fully human IgG from a yeast presentation system; also called anti-TIGIT clone 25
binding result [1]: binds
binding result [2]: binds

B2: Clone 13 (antibody, human IgG1, V domains shown)
VH: QVQLVQSGAEVKKPGSSVKVSCKASGGTFSSYAISWVRQAPGQGLEWMGSIIPIFGTANYAQKFQGRVTITADESTSTAYMELSSLRSEDTAVYYCARGPSEVGAILGYVWFDPWGQGTLVTVSS
VL: not shown
notes: Fully human IgG1 ('c13 hIgG1'); also called anti-TIGIT clone 13; c13 hIgG1
IC50 (read off the curve) [3]: ~0.2 µg/mL
IC50 (read off the curve) [4]: ~0.09 µg/mL

B3: Clone 13D (antibody, V domains shown)
VH: QVQLVQSGAEVKKPGSSVKVSCKASGGTFLSSAISWVRQAPGQGLEWMGSIIPYFGKANYAQKFQGRVTITADESTSTAYMELSSLRSEDTAVYYCARGPSEVKGILGYVWFDPWGQGTLVTVSS
VL: not shown
notes: IgG
FOB (Fold Over Background) (cynomolgus monkey TIGIT): 245 fold
FOB (Fold Over Background) [5]: 190 fold

B4: mouse IgG2a chimera of anti-TIGIT clone 13 (antibody, V domains shown)
VH: QVQLVQSGAEVKKPGSSVKVSCKASGGTFSSYAISWVRQAPGQGLEWMGSIIPIFGTANYAQKFQGRVTITADESTSTAYMELSSLRSEDTAVYYCARGPSEVGAILGYVWFDPWGQGTLVTVSS
VL: not shown
notes: also called c13 mIgG2a
EC50 [6]: 0.04 µg/mL
IC50 (read off the curve) [4]: ~0.06 µg/mL
